Experimental data taken from patent US20210386829A1, “COMPOSITIONS AND METHODS FOR MODULATING CGRP SIGNALING TO REGULATE INNATE LYMPHOID CELL INFLAMMATORY RESPONSES” (The Broad Institute, Inc., priority 2018, published 2021).

Tested on: lung-resident ILCs
Assay: SMART-Seq2 plate-based scRNA-seq of lung-resident ILCs from PBS-, IL-25- or IL-33-treated mice, differential gene expression by logistic regression (Tables 3, 4)
Format: in vivo, mouse
Source text: Mice and in vivo ILC activation. C57B1/6J mice were purchased from the Jackson Laboratory. Nmur1-LacZ reporter mice with a LacZ cassette knocked into the Nmur1 locus were rederived from Nmur1^tm1.1(KOMP)Vlcg sperm obtained from the trans-NIH Knock-Out Mouse Project (KOMP) Repository. NMU-deficient mice (NMU-KO) were rederived from B6.129S2-Nmu<tm1Mko> embryos from the RIKEN BioResource Center. For experiments with Nmur1-LacZ (Nmur1-KO) and NMU-KO mice, littermates that were either homozygous or heterozygous for the wild type allele were used as controls. Mice were housed under specific-pathogen-free conditions. For experiments, mice were matched for sex and age, and most mice were 6-10 weeks old. Where indicated, mice were anesthetized with Isoflurane and treated intranasally with the indicated stimuli (500 ng IL-25, 500 ng IL-33, or 20 μg Neuromedin U) daily for three consecutive days. The total administered volume was 20 μl for all conditions. Mice were randomly assigned to treatment groups after matching for sex and age. […] Mice were treated intranasally with 10 μg HDM on day 0, 7, 8, and 9, prior to sacrifice on day 10. All experiments were conducted in accordance with animal protocols approved by the Harvard Medical Area Standing Committee on Animals or BWH IACUC.
Fluorescence-activated cell sorting of innate lymphoid cells. After dissociation, single cell suspensions were incubated with CD90.2 MicroBeads (Miltenyi Biotec) on ice and enriched for CD90.2^+ cells by magnetic separation using LS columns according to the manufacturer's protocol. CD90.2^+ lung cells were then stained on ice with antibodies for sorting. ILCs were defined as 7AAD^− CD45^+ CD90.2^+ CD127^+ Lineage (CD11b, CD11c, CD19, NK1.1, […], CD4, CD8a, TCRβ, TCRγδ)^− cells and sorted on a BD FACS Aria (BD Biosciences).
For full-length scRNA-Seq, single ILCs were sorted into 96-well plates containing 5 ul TCL Buffer (QIAGEN) with 1% 2-Mercaptoethanol, centrifuged and frozen at −80° C. SMART-Seq2 protocol was carried out as previously described^23 with minor modifications in the reverse transcription step. cDNA was amplified with 22 cycles and fragmented with one-eighth of the standard Illumina NexteraXT reaction volume. Single-cell libraries were pooled and paired-end sequenced (38 bp×2) with a 75 cycle Nextseq 500 high output V2 kit.
Analysis of SMART-Seq2 plate-based scRNA-Seq data. Reads were aligned to mm10 using Kallisto (Bray, N. L., Pimentel, H., Meisted, P. & Pachter, L. Near-optimal probabilistic RNA-seq quantification. Nat Biotechnol 134, 525-527, doi:10.1038/nbt.3519 (2016)) quant, version 0.42.3. The R package tximport (Soneson, C., Love, M. I. & Robinson, M. D. Differential analyses for RNA-seq: transcript-level estimates improve gene-level inferences [version 2; referees: 2 approved]. F1000Research 4, doi:10.12688/f1000research.7563.2 (2016)), version 1.2.0, was used to convert the output to gene counts and traditional TPM values. Because of the variability in read counts per cell across plates, even from the same condition, as well as in the number of genes per cell across conditions, QC was performed for each of eight plates individually in order to remove cells that were outliers with respect to either measure. Out of 752 cells, 606 cells met QC criteria (234 from control, 152 from IL-25 treated mice, and 220 from IL-33 treated mice), and the number of genes per cell in this set ranged from 1,625 to 6,375. Genes that were not expressed with log(TPM)>2.5 in at least two cells were removed from further analysis. Subsequent analysis proceeded analogously to the droplet-based RNA-seq analysis, with parameter settings that reflected both the wider dynamic range of expression and much smaller cell numbers. The minimum ILC signature score required in ILC type assignment was 0.3. Variable genes were identified by running MeanVarPlot with x.low.cutoff=0.1, y.cutoff=1.5, and x.high.cutoff=10, resulting in a set of 519 genes. […]

B1: IL25 (protein, UniProt Q8VHH8 17-169, looked up)
Interleukin-25: VSLRIQEGCSHLPSCCPSKEQEPPEEWLKWSSASVSPPEPLSHTHHAESCRASKDGPLNSRAISPWSYELDRDLNRVPQDLYHARCLCPHCVSLQTGSHMDPLGNSVPLYHNQTVFYRRPCHGEEGTHRRYCLERRLYRVSLACVCVRPRVMA
Med16 expression coeff: −0.61 | Mfsd1 expression coeff: 1.25 | Mgat1 expression coeff: 1.24 | Mgat5 expression coeff: 1.02 | Mier3 expression coeff: −0.901 | Mkl2 expression coeff: −1.12 | Mlec expression coeff: 0.715 | Morc3 expression coeff: 0.662 | Mov10 expression coeff: 1.08 | Mplkip expression coeff: −0.607 | Mrp63 expression coeff: 1.09 | Mrpl40 expression coeff: −0.837 | Mrpl52 expression coeff: 0.158 | Mrpl53 expression coeff: −1.87 | Mrps18a expression coeff: −1.24 | Ms4a4b expression coeff: 3.49 | Ms4a6b expression coeff: 3.22 | Mtfmt expression coeff: −2.15 | Mxd1 expression coeff: 0.448 | Mybbp1a expression coeff: −0.514 | Myg1 expression coeff: −1.33 | Myo1f expression coeff: 0.897 | Myo1g expression coeff: 0.257 | Naa60 expression coeff: 0.241 | Nbn expression coeff: −0.499 | Ndufaf3 expression coeff: 1.45 | Neu3 expression coeff: −2.64 | Nfil3 expression coeff: 2.04 | Nipal1 expression coeff: 1.61 | Nlrc5 expression coeff: 0.93 | Nol6 expression coeff: −1.65 | Nol9 expression coeff: −0.775 | Nop56 expression coeff: −0.619 | Npc2 expression coeff: 0.143 | Npnt expression coeff: 0.056 | Nrip1 expression coeff: 0.668 | Nsmaf expression coeff: 1.41 | Oas1a expression coeff: 0.0294 | Ogfr expression coeff: 0.578 | Omd expression coeff: −1.12 | Parp3 expression coeff: 0.335 | Parp10 expression coeff: 0.371 | Parp14 expression coeff: 0.934 | Paxip1 expression coeff: −1.15 | Pdcd1 expression coeff: 1.04 | Pde4b expression coeff: 0.735 | Per1 expression coeff: −0.785 | Pfas expression coeff: −0.546 | Phc3 expression coeff: 0.476 | Phf11a expression coeff: 1.52 | Phf11b expression coeff: 1.38 | Picalm expression coeff: 1.79 | Pigv expression coeff: −2.73 | Pin4 expression coeff: 0.928 | Plac8 expression coeff: 0.268 | Plekha5 expression coeff: −1.01 | Plxdc2 expression coeff: −0.906 | Pml expression coeff: 1.04 | Ppif expression coeff: −1.14 | Ppp1r15a expression coeff: 0.186 | Pydc4 expression coeff: 1.52 | Pyhin1 expression coeff: 0.623 | Rab7l1 expression coeff: 1.18 | Rab8b expression coeff: 1.5 | Rab33b expression coeff: −1.3 | Rdh1 expression coeff: −2.49 | Rdh13 expression coeff: −1.37 | Rilpl2 expression coeff: 1.4 | Rnf125 expression coeff: 1.65 | Rtp4 expression coeff: 0.866 | Samd9l expression coeff: 0.773 | Sbno2 expression coeff: 1.09 | Sdc4 expression coeff: 0.206 | Sdccag3 expression coeff: 0.312 | Sema4a expression coeff: −0.348 | Sema4d expression coeff: 0.548 | Sesn3 expression coeff: 0.328 | Shank2 expression coeff: −3.19 | Sipa1 expression coeff: 1.56 | Slc25a24 expression coeff: 0.607 | Slc44a2 expression coeff: 0.294 | Slfn2 expression coeff: 0.267 | Smn1 expression coeff: −1.53 | Sntb1 expression coeff: 1.29 | Soat1 expression coeff: 0.339 | Socs1 expression coeff: −1.36 | Socs2 expression coeff: −0.923 | Socs3 expression coeff: 1.02 | Sp100 expression coeff: 0.451 | Sptssa expression coeff: −0.974 | Ssr3 expression coeff: 0.609 | St3gal6 expression coeff: −0.764 | Stab1 expression coeff: 1.24 | Stat1 expression coeff: 1.88 | Syt11 expression coeff: 0.291 | Taf1d expression coeff: 1.28 | Tango6 expression coeff: −1.32 | Tap1 expression coeff: 0.561 | Tap2 expression coeff: 0.406 | Tet3 expression coeff: 1.62 | Tmem33 expression coeff: 1.18 | Tmem176a expression coeff: −0.146 | Tmem176b expression coeff: −0.422 | Tmem209 expression coeff: −0.847 | Tmem229b expression coeff: 0.199 | Tnfrsf18 expression coeff: −1.25 | Tnfsf10 expression coeff: −1.18 | Tpm4 expression coeff: 0.311 | Tradd expression coeff: 0.964 | Trafd1 expression coeff: 0.993 | Trim12c expression coeff: 0.974 | Trim30a expression coeff: 1.17 | Trim34a expression coeff: 0.632 | Trim30d expression coeff: 0.527 | Trip13 expression coeff: −1.91 | Trp53inp1 expression coeff: 1.28 | Ttc19 expression coeff: 0.891 | Ttc39b expression coeff: 0.546 | Ube2h expression coeff: 0.767 | Usp18 expression coeff: 1.1 | Usp36 expression coeff: −0.645 | Vdr expression coeff: −0.748 | Vmp1 expression coeff: 1.49 | Xrcc3 expression coeff: −1.4 | Zbp1 expression coeff: 0.971 | Zc3h12a expression coeff: −1.14 | Zcchc10 expression coeff: −1.82 | Zfand6 expression coeff: 0.659 | Zfc3h1 expression coeff: 0.466 | Zfp110 expression coeff: −0.396 | Zfp825 expression coeff: −1.4
